Data reported in US10215752 (MIT, dated 2019).
Like-named read-outs stand apart in the source and are kept apart here.

B1: Jun (P05412) without His-tag (other, human, UniProt P05412 1-331, looked up)
chain: MTAKMETTFYDDALNASFLPSESGPYGYSNPKILKQSMTLNLADPVGSLKPHLRAKNSDLLTSPDVGLLKLASPELERLIIQSSNGHITTTPTPTQFLCPKNVTDEQEGFAEGFVRALAELHSQNTLPSVTSAAQPVNGAGMVAPAVASVAGGSGSGGFSASLHSEPPVYANLSNFNPGALSSGGGAPSYGAAGLAFPAQPQQQQQPPHHLPQQMPVQHPRLQALKEEPQTVPEMPGETPPLSPIDMESQERIKAERKRMRNRIAASKCRKRKLERIARLEEKVKTLKAQNSELASTANMLREQVAQLKQKVMNHVNSGCQLMLTQQLQTF
notes: also called Jun (noHis)
B2: p16 (P42771) without His-tag (other, human, UniProt P42771 1-156, looked up)
chain: MEPAAGSSMEPSADWLATAAARGRVEEVRALLEAGALPNAPNSYGRRPIQVMMMGSARVAELLLLHGAEPNCADPATLTRPVHDAAREGFLDTLVVLHRAGARLDVRDAWGRLPVDLAEELGHRDVARYLRAAAGGTRGSNHARIDAAEGPSDIPD
notes: also called p16 (noHis)
B3: CDK4 (P11802) without His-tag (enzyme, human, UniProt P11802 1-303, looked up)
chain: MATSRYEPVAEIGVGAYGTVYKARDPHSGHFVALKSVRVPNGGGGGGGLPISTVREVALLRRLEAFEHPNVVRLMDVCATSRTDREIKVTLVFEHVDQDLRTYLDKAPPPGLPAETIKDLMRQFLRGLDFLHANCIVHRDLKPENILVTSGGTVKLADFGLARIYSYQMALTPVVVTLWYRAPEVLLQSTYATPVDMWSVGCIFAEMFRRKPLFCGNSEADQLGKIFDLIGLPPEDDWPRDVSLPRGAFPPRGPRPVQSVVPEMEESGAQLLLEMLTFNPHKRISAFRALQHSYLHKDEGNPE
notes: also called CDK4 (noHis)
B4: His-tag Jun (P05412) (other, human)
chain: MTAKMETTFYDDALNASFLPSESGPYGYSNPKILKQSMTLNLADPVGSLKPHLRAKNSDLLTSPDVGLLKLASPELERLIIQSSNGHITTTPTPTQFLCPKNVTDEQEGFAEGFVRALAELHSQNTLPSVTSAAQPVNGAGMVAPAVASVAGGSGSGGFSASLHSEPPVYANLSNFNPGALSSGGGAPSYGAAGLAFPAQPQQQQQPPHHLPQQMPVQHPRLQALKEEPQTVPEMPGETPPLSPIDMESQERIKAERKRMRNRIAASKCRKRKLERIARLEEKVKTLKAQNSELASTANMLREQVAQLKQKVMNHVNSGCQLMLTQQLQTFHHHHHH
notes: Capture protein, expressed on the chip by cell-free synthesis with a His-tag
B5: His-tag p16 (P42771) (other, human)
chain: MEPAAGSSMEPSADWLATAAARGRVEEVRALLEAGALPNAPNSYGRRPIQVMMMGSARVAELLLLHGAEPNCADPATLTRPVHDAAREGFLDTLVVLHRAGARLDVRDAWGRLPVDLAEELGHRDVARYLRAAAGGTRGSNHARIDAAEGPSDIPDHHHHHH
notes: as for B4
B6: His-tag CDK4 (P11802) (enzyme, human)
chain: MATSRYEPVAEIGVGAYGTVYKARDPHSGHFVALKSVRVPNGGGGGGGLPISTVREVALLRRLEAFEHPNVVRLMDVCATSRTDREIKVTLVFEHVDQDLRTYLDKAPPPGLPAETIKDLMRQFLRGLDFLHANCIVHRDLKPENILVTSGGTVKLADFGLARIYSYQMALTPVVVTLWYRAPEVLLQSTYATPVDMWSVGCIFAEMFRRKPLFCGNSEADQLGKIFDLIGLPPEDDWPRDVSLPRGAFPPRGPRPVQSVVPEMEESGAQLLLEMLTFNPHKRISAFRALQHSYLHKDEGNPEHHHHHH
notes: as for B4

Tests used:
His-tag Fos (P01100) [1] = molecular target: T1, His-tag Fos (P01100) (human, UniProt P01100 1-380); assay: change of the Ni2+-SWNT distance on adding the analyte, calculated by the Förster equation from nIR fluorescence of the SWNT/chitosan Ni-NTA array
T1 construct: Capture protein, expressed on the chip by cell-free synthesis with a His-tag

His-tag CDK4 (P11802) = molecular target: B6; assay: as above
His-tag Fos (P01100) [2] = molecular target: T1, His-tag Fos (P01100); assay: nIR fluorescence spectra (1000-1100 nm) of one SWNT/chitosan Ni-NTA array spot before expression, after the His-tag capture protein and after the analyte protein without His-tag; pair label = capture-analyte
His-tag Jun (P05412) [3] = molecular target: B4; assay: as above
His-tag p16 (P42771) = molecular target: B5; assay: change of the Ni2+-SWNT distance on adding the analyte, calculated by the Förster equation from nIR fluorescence of the SWNT/chitosan Ni-NTA array
His-tag Jun (P05412) [4] = molecular target: B4; assay: nIR fluorescence spectra (1000-1100 nm) of one SWNT/chitosan Ni-NTA array spot before expression, after the His-tag capture protein and after the analyte protein without His-tag; pair label = capture-analyte; remark: listed apart in the source
His-tag Fos (P01100) [5] = molecular target: T1, His-tag Fos (P01100); assay: as above; remark: listed apart in the source
[6] = molecular target: T2, Fos (P01100) without His-tag (human, UniProt P01100 1-380); assay: label-free nIR fluorescence (1045 nm) of SWNT/chitosan Ni-NTA array spots; His-tag capture protein expressed on the spot, then cell-free expressed analyte protein without His-tag added; pair label = capture-analyte
T2 construct: also called Fos (noHis)

[7] = molecular target: T2, Fos (P01100) without His-tag; assay: label-free nIR fluorescence (1045 nm) of SWNT/chitosan Ni-NTA array spots; His-tag capture protein expressed on the spot, then analyte protein without His-tag added; pair label = capture-analyte
[8] = molecular target: B1; assay: nIR fluorescence spectra (1000-1100 nm) of one SWNT/chitosan Ni-NTA array spot before expression, after the His-tag capture protein and after the analyte protein without His-tag; pair label = capture-analyte
[9] = molecular target: T2, Fos (P01100) without His-tag; assay: as above
[10] = molecular target: B1; assay: label-free nIR fluorescence (1045 nm) of SWNT/chitosan Ni-NTA array spots; His-tag capture protein expressed on the spot, then analyte protein without His-tag added; pair label = capture-analyte

T2 sequence (P01100 whole entry, one chain of several): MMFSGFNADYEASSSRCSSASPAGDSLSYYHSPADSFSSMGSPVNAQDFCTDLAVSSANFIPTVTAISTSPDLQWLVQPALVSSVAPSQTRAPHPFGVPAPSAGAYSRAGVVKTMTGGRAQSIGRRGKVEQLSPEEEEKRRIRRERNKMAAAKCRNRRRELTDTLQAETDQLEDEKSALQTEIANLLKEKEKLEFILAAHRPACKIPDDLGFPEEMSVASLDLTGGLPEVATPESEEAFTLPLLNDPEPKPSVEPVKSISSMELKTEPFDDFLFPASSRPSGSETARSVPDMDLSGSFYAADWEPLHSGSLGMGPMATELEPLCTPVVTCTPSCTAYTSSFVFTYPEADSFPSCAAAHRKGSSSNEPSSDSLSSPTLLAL
T1 sequence (P01100 other isoform, or with tags, fused parts or gaps limits assumed): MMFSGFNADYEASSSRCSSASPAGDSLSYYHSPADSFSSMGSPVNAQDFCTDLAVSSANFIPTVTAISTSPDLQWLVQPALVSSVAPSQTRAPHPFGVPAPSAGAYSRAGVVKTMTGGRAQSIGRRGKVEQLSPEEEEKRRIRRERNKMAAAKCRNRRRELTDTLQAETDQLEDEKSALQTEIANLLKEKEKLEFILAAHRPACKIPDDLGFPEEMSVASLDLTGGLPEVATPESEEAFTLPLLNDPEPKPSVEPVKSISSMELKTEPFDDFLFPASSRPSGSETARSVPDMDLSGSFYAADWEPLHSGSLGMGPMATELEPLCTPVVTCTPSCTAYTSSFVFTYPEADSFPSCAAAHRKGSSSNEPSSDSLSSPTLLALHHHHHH

B1
Δd2 (His-tag Fos (P01100) [1]): 0.0236 nm

B2
Δd2 (His-tag CDK4 (P11802)): 0.0634 nm
binding result (His-tag Fos (P01100) [2]): no binding
binding result (His-tag Jun (P05412) [3]): no binding

B3
Δd2 (His-tag p16 (P42771)): 0.0517 nm
binding result (His-tag Jun (P05412) [4]): no binding
binding result (His-tag Fos (P01100) [5]): no binding

B4
binding result [6]: binds

B5
binding result [7]: no binding
binding result [8]: no binding

B6
binding result [9]: no binding
binding result [10]: no binding
